# Patent publication US20100050279
# Biological target: T1, FLPo (codon-optimized FLPe recombinase) (UniProt P03870)
# T1 sequence: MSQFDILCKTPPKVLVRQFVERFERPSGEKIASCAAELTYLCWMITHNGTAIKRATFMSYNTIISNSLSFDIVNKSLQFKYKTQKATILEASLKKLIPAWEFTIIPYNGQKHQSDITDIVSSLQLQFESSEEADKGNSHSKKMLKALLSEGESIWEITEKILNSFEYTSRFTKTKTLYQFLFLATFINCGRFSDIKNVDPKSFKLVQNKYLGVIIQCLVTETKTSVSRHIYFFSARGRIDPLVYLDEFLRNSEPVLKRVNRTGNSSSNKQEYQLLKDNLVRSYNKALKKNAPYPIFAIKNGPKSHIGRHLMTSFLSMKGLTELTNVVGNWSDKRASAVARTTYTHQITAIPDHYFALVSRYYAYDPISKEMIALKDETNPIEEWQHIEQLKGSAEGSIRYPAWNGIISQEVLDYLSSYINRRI
# Experiment: cell_activity
substance,measurement,setting,value
FRT (FLP recognition site) in ROSA26 PLAP reporter,activity (% of hygroR colonies recombined),"stable integration, 7 of 14 colonies",50
same,activity,"transient, mouse FLP reporter ES cells, 10 ug circular plasmid, 5 days, value stated as nearly 75%, nearly 20-fold over FLPe",75%
